Measured values reported in patent publication US20230080534A1, “SEMG2 ANTIBODY AND USE THEREOF” (SHANGHAI BIOTROY BIOTECHNIQUE CO., LTD., priority 2020, published 2023).
No end group written: not given here.

Key:
human CD27 = target: T1, human CD27 (Homo sapiens, UniProt P26842); assay: Co-immunoprecipitation of GFP-fused SEMG2 fragments with CD27 in co-transfected HEK293 cells; type: binding; settings: GFP-fused fragment co-transfected with CD27 into HEK293 cells
T1 construct: HA; expressed in transfected cells; host or cells: HEK293
T1 sequence (P26842 20-260): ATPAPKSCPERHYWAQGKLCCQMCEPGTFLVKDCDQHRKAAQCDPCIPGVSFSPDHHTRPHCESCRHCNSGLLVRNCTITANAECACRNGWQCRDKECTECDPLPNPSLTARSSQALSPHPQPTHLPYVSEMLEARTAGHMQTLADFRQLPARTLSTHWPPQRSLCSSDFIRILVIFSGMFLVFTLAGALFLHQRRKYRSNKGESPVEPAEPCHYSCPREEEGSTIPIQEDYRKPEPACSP
Method: (§1) In co-immunoprecipitation experiment, cells were lysed in IP buffer (Thermo Scientific) and Roche complete protease inhibitor for 10 minutes, followed by the addition of benzonase (sigma) for 25 minutes at room temperature. The lysate was then centrifuged at 15,000 rpm at 4° C. to remove the precipitate. The supernatant was then incubated with primary antibody slowly rotated overnight at 4° C., followed by the addition of protein A or protein G dynabeads and incubated at 4° C. for 2 hours, washed for 4 times in PBST (PBS with 0.01% Tween 20), eluted with 50 mM DTT in SDS sample buffer for 10 minutes at 100° C., separated with SDS, and immunoblotted as previously described.
To further confirm which part of SEMG-2 binds to CD27, fragments of SEMG2 protein were designed. The amino acid sequence of full-length SEMG2 protein (SEQ ID NO:1) was divided into 6 segments of sequences, fused with GFP and named as SEMG2-P1, SEMG2-P2, SEMG2-P3, SEMG2-P4, SEMG2-P5 and SEMG2-P6 (See Table 1 for specific sequences, with corresponding abbreviation as P1-P6 respectively). Plasmids expressing these amino acid sequences were co-transfected with CD27 into HEK293 cells, and co-immunoprecipitation experiments were performed to identify the main fragment of SEMG2 that binds to CD27. […]

mouse CD27 = target: T2, mouse CD27 (Mus musculus, UniProt P41272); assay: Co-immunoprecipitation of GFP-fused SEMG2 fragments with mouse CD27 in co-transfected HEK293 cells; type: binding; settings: GFP-fused fragment co-transfected with mouse CD27 into HEK293 cells
T2 construct: HA; expressed in transfected cells; host or cells: HEK293
T2 sequence (P41272 24-250): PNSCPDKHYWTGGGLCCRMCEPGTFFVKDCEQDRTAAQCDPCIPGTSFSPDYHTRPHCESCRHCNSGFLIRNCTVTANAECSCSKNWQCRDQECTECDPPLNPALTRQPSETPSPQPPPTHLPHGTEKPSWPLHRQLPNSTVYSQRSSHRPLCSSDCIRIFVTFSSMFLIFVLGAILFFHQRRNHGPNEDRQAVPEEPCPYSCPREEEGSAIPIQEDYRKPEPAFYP
Method: as §1
To further confirm the key amino acids in the binding between SEMG2-P5 sequence and CD27, SEMG2(497-509) fragment was selected and named as SEMG2-P7 (the specific sequence is QIEKLVEGKSQIQ, abbreviated as P7 or SP7). SEMG2-P7(497-509), SEMG2-P5(positive control), SEMG2-P4 (negative control) or SEMG2-P6 (negative control) was co-transfected with CD27 into HEK293 cells respectively, including human CD27 and mouse CD27. […] This co-immunoprecipitation experiment confirmed that SEMG2(497-509) is the main structure that binds to human and mouse CD27.

[1] = target: T3, binding between full-length SEMG2 and CD27 (Homo sapiens, UniProt P26842); assay: Peptide competition ELISA: CD27-Fc pre-incubated with peptide, added to SEMG2-coated plate; settings: different concentrations of peptide co-incubated with CD27-Fc
T3 construct: the extracellular region of human CD27 protein fused to the Fe fragment of human antibody
T3 sequence (P26842 20-191 limits assumed): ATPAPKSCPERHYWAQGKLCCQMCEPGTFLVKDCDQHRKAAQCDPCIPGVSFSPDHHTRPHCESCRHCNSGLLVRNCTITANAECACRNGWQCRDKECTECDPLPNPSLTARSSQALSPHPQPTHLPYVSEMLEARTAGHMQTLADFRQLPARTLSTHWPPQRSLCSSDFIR
Method: (§2) FIG. 6 depicts the binding between SEMG2 epitope polypeptides and CD27, and its competitive inhibition of full-length SEMG2 binding to CD27. […] As shown in the figure, different concentrations of peptides are firstly co-incubated with CD27-Fc for binding, and then added into the micro-reaction plate pre-coated with SEMG2 protein. After co-incubation, the unconjugated molecules are washed off, and anti-Fc secondary antibody-HRP are then used for detecting and developing.

CD27 protein = target: T4, CD27 protein (Homo sapiens, UniProt P26842); assay: ELISA binding of BSA-conjugated SEMG2 (497-509) polypeptides to CD27; settings: versus negative BSA control
T4 construct: the extracellular region of human CD27 protein fused to the Fe fragment of human antibody
T4 sequence (P26842 20-191 limits assumed): T3 sequence (P26842 20-191 limits assumed)
Method: as §2
These mutant plasmids and CD27 expression vector were co-transfected into HEK293 cells, and the degree of GFP-fused 1-13 polypeptide variants binding to CD27 was detected by co-immunoprecipitation assay. […] Therefore, it can be seen that the amino acids at positions 497, 498, 499, 500, 501, 502, 503, 504, 505, 506 and 508 of SEMG2 have obvious effects on the binding to CD27. The peptide sequence 497-509 was coupled to BSA, and coated onto a 96-well microplate. CD27-hFc at different concentrations was used as the primary antibody to detect the ability of CD27 to bind to the peptide sequence.

binding to CD27 (co-immunoprecipitation) (human CD27) | binding to mouse CD27 (co-immunoprecipitation) (mouse CD27) | inhibitory effect on the binding between full-length SEMG2 and CD27 [1] | binding to CD27 protein on the microplate (CD27 protein) | Substance
 |  |  | can bind | BSA-conjugated human SEMG2 (497-509) polypeptide: human SEMG2 (497-509) peptide coupled to BSA (QIEKLVEGKSQIQ; also: coupled to BSA, site not given here)
 |  | can inhibit the binding |  | QIEKLVEGKSQI (UNSURE (1)..(12) Epitope peptides)
 |  | can inhibit the binding |  | QIAKLVEGKSQ [SEMG2-derived polypeptide derivative]

Further lines, the substance ahead of its results:

Substance | binding to CD27 (co-immunoprecipitation) (human CD27) | binding to mouse CD27 (co-immunoprecipitation) (mouse CD27) | inhibitory effect on the binding between full-length SEMG2 and CD27 [1] | binding to CD27 protein on the microplate (CD27 protein)
QIEKLVEGKSQIQ (UNSURE (1)..(13) Epitope peptides) [SEMG2-P7] | bind | bind | can inhibit the binding | 
QIEKLVEGKSQ (UNSURE (1)..(11) Epitope peptides) |  |  | can inhibit the binding | 
